Data on 5 molecules can be found in patent US20130157289A1 (Genentech, published 2013).

Assay [1] concerns the target T1, human STEAP-1 (human, UniProt Q9UHE8 1-339).
T1 construct: Six-transmembrane cell surface antigen; Exogenous full length STEAP-1 stably expressed in 293 cells (LB50, LB48, LB53) and PC3 cells (PS5.4); endogenous in LNCaP / LNCaP-BR cells; also called Six Transmembrane Epithelial Antigen of the Prostate 1
As to the kind of experiment: FACS of display-normalised Fab phage, aligned histograms; no cell name on the panel, traces as in FIG. 6A (LB50). The protocol: Phage expressing Fab variants were first assessed for their Fab display level using an phage ELISA used to detect a […] fused to the light chain of the Fab. MaxiSorp microtiter plates were coated with anti-gD 1766 at 10 μg/ml in PBS over night and then blocked with Casein Blocker. Phage from culture supernatants were serially diluted in PBST containing 0.5% BSA in a tissue culture microtiter plate and transferred to the coated wells for 1 h to capture the Fab displaying phage. The plate was washed with PBST and HRP conjugated anti-M13 (Amersham Pharmacia Biotech) was added (1:5000 in PBST containing 0.5% BSA) for 40 min. The plate was washed with PBST and developed by adding Tetramethylbenzidine substrate (Kirkegaard and Perry Laboratories, Gaithersburg, Md.). The absorbance at 405 nm was used as an estimate of the Fab display level on the surface of the phage. Phage preparations were normalized for display by dilution. Low displaying phage (e.g. the chimera) were used neat for FACS analysis.
For FACS analysis of phage binding, cells were removed from the plate using 2 mM EDTA, collected in a 15 mL conical bottom tube and pelleted by centrifugation. Cells (5×10⁵ cells per sample) were re-suspended in 100 μL of phage (normalized by display level) in FACS buffer (1% FBS, PBS with 2 mM EDTA) and incubated for 1-2 hours on ice. Samples were washed twice with FACS buffer by centrifugation. Anti-M13 5G7 control antibody (Genentech, Inc. South San Francisco, Calif.) was added at 2 μg/mL and incubated on ice for at least 45 minutes. Samples were washed twice with FACS buffer by centrifugation. A 1:200 dilution of anti-mouse PE (R-phycoerythrin goat anti-mouse IgG Fcy Fragment, Jackson Immunoresearch) was added and incubated on ice for 30 minutes. Samples were again washed twice with FACS buffer by centrifugation and analyzed by FACS.

In assay [2] the target is T1, human STEAP-1. Put plainly: Scatchard analysis on LNCaP.BR cells, Assay 739; displacement curve (Bound/Total against Total, nM) and Scatchard plot (Bound/Free against Bound, pM). An excerpt:
(§1) IgG was purified with Protein G affinity chromatography.

Assay [3] deals with T1, human STEAP-1. Put plainly: Scatchard analysis on 293-LB50 cells, average value.
Source text: as §1

The target in assay [4] is T1, human STEAP-1. As to the kind of experiment: Scatchard analysis on 293.LB50 cells, Assay 737; displacement curve and Scatchard plot.
Source text: as §1

The target of assay [5] is T1, human STEAP-1. Put plainly: Scatchard analysis on LNCaP.BR cells, Assay 740; displacement curve and Scatchard plot.
Source text: as §1

The target of assay [6] is T1, human STEAP-1. As to the kind of experiment: Scatchard analysis on 293.LB50 cells, Assay 738; displacement curve and Scatchard plot.
Source text: as §1

Assay [7] has as its target T2, cynomolgus monkey STEAP-1 (cynomolgus monkey, UniProt Q9UHE8 1-339 (human entry)).
T2 construct: the expressing cell line is not described; also called cyno STEAP-1
Put plainly: Scatchard analysis on 293 cells transiently expressing cynomolgus STEAP-1 (293-Transient Cyno Steap1); side note: Same Affinity for Human & Cyno.

Assay [8] concerns the target T1, human STEAP-1. As to the kind of experiment: Scatchard analysis on LNCaP-BR cells, average value.
Source text: as §1

For assay [9], the target named is T1, human STEAP-1. Put plainly: Scatchard analysis on 293 cells transiently expressing human STEAP-1 (293-Transient Human Steap1).
Source text: as §1

In assay [10] the target is T1, human STEAP-1. Put plainly: Scatchard analysis on 293 STEAP-1 NT LB50 cells.
Source text: as §1

The term Kd denotes the concentration at which binding is half-saturated.

T1 sequence (Q9UHE8 other isoform, or with tags, fused parts or gaps): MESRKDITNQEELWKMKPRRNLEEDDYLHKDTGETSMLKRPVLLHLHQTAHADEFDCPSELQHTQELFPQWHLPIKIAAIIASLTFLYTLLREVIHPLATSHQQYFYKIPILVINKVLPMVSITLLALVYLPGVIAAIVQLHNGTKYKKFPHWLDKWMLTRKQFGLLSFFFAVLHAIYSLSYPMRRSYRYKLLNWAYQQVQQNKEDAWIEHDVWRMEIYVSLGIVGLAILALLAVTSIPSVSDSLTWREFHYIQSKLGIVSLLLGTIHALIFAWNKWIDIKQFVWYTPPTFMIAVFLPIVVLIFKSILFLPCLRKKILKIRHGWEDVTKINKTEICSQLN
T2 sequence (Q9UHE8 other isoform, or with tags, fused parts or gaps): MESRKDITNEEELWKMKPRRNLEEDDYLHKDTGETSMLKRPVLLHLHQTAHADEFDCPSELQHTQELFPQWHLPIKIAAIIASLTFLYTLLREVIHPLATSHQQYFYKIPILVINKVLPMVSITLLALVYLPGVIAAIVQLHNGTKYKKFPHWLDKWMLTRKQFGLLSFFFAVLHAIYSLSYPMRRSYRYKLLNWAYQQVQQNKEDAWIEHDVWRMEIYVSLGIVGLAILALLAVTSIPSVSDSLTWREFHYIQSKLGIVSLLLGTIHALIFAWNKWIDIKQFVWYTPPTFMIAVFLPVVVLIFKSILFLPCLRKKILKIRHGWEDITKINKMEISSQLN

B1: 37 Phage (Fab, V domains shown)
VH: EVQLVESGGGLVQPGGSLRLSCAASGYSITSDYAWNWIRQAPGKGLEWVGYISNSGSTSYNPSLKSRFTISRDNSKNTLYLQMNSLRAEDTAVYYCARERNYDYDDYYYAMDYWGQGTLVTVSS
VL: DIQMTQSPSSLSASVGDRVTITCKSSQSLLYRSNQKNYLAWYQQKPGKAPKLLIYWASTRESGVPSRFSGSGSGTDFTLTISSLQPEDFATYYCQQYYNYPRTFGQGTKVEIKR
notes: monovalent Fab-g3 phage display; also called V37I variant of the 120 graft
For B1, the binding result with human STEAP-1 [1] is “binds”.

B2: 48 Phage (Fab, V domains shown)
VH: EVQLVESGGGLVQPGGSLRLSCAASGYSITSDYAWNWVRQAPGKGLEWMGYISNSGSTSYNPSLKSRFTISRDNSKNTLYLQMNSLRAEDTAVYYCARERNYDYDDYYYAMDYWGQGTLVTVSS
VL: DIQMTQSPSSLSASVGDRVTITCKSSQSLLYRSNQKNYLAWYQQKPGKAPKLLIYWASTRESGVPSRFSGSGSGTDFTLTISSLQPEDFATYYCQQYYNYPRTFGQGTKVEIKR
notes: monovalent Fab-g3 phage display; also called V48M variant of the 120 graft
Regarding B2, the binding result in the assay with human STEAP-1 [1] was “binds”.

B3: 67 Phage (Fab, V domains shown)
VH: EVQLVESGGGLVQPGGSLRLSCAASGYSITSDYAWNWVRQAPGKGLEWVGYISNSGSTSYNPSLKSRITISRDNSKNTLYLQMNSLRAEDTAVYYCARERNYDYDDYYYAMDYWGQGTLVTVSS
VL: DIQMTQSPSSLSASVGDRVTITCKSSQSLLYRSNQKNYLAWYQQKPGKAPKLLIYWASTRESGVPSRFSGSGSGTDFTLTISSLQPEDFATYYCQQYYNYPRTFGQGTKVEIKR
notes: monovalent Fab-g3 phage display; also called F67I variant of the 120 graft
Consider B3, for which the binding result in the assay with human STEAP-1 [1] is on record as “binds”.

B4: Original Thio 120V24 (antibody, V domains shown)
VH: EVQLVESGGGLVQPGGSLRLSCAVSGYSITSDYAWNWVRQAPGKGLEWVGYISNSGSTSYNPSLKSRFTISRDNSKNTLYLQMNSLRAEDTAVYYCARERNYDYDDYYYAMDYWGQGTLVTVSS
VL: DIQMTQSPSSLSASVGDRVTITCKSSQSLLYRSNQKNYLAWYQQKPGKAPKLLIYWASTRESGVPSRFSGSGSGTDFTLTISSLQPEDFATYYCQQYYNYPRTFGQGTKVEIKR
notes: cysteine engineered form of humanized 120.v24; also called Orig Thio PUR 12813; Thio Mab
As for B4, the Kd with human STEAP-1 [2] is 1.1 nM; with human STEAP-1 [3], 1.9 nM; with human STEAP-1 [4], 1.7 nM; with human STEAP-1 [5] it was 1.7 nM; with human STEAP-1 [6], 2 nM; in assay [7], 1.1 nM. Further, the Kd in the assay with human STEAP-1 [8] and with human STEAP-1 [9] was 1.4 nM throughout.

B5: humanized anti-STEAP-1 120v.24 (antibody, name in Kabat numbering, V domains shown)
VH: EVQLVESGGGLVQPGGSLRLSCAVSGYSITSDYAWNWVRQAPGKGLEWVGYISNSGSTSYNPSLKSRFTISRDNSKNTLYLQMNSLRAEDTAVYYCARERNYDYDDYYYAMDYWGQGTLVTVSS
VL: DIQMTQSPSSLSASVGDRVTITCKSSQSLLYRSNQKNYLAWYQQKPGKAPKLLIYWASTRESGVPSRFSGSGSGTDFTLTISSLQPEDFATYYCQQYYNYPRTFGQGTKVEIKR
notes: constant regions not specified; also called humanized 120v.24 (clone 67); humanized version 24
B5: the “fold improvement in Kd over the 120 chimera and murine M2-120.545” value in the assay with human STEAP-1 [10] is 2 fold.
